According to patent US20240294647A1:

Experiments:
[1] = target: human CD16A-158V ECD fused to monomeric Fc (human) (UniProt P08637); experiment: SPR (Biacore T200), receptor captured, 1:1 model
[2] = target: human CD16A-158F ECD fused to monomeric Fc (human) (UniProt P08637); experiment: SPR (Biacore T200), receptor captured, 1:1 model
Sequence of human CD16A-158F ECD fused to monomeric Fc (human) (P08637 17-208): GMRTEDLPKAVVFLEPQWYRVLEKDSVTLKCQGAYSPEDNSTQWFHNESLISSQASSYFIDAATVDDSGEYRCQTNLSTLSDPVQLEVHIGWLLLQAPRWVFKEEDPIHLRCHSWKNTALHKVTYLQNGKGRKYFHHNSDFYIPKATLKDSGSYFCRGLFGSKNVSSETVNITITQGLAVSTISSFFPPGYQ

Sequence of human CD16A-158V ECD fused to monomeric Fc (human) (P08637 17-208 F176V): as the sequence (P08637 17-208) above, with F160V counted along it

Kd [1] [nM] | koff [1] [s⁻¹] | kon [1] [M⁻¹ s⁻¹] | Kd [2] [nM] | koff [2] [s⁻¹] | kon [2] [M⁻¹ s⁻¹] | Substance
13.5 | 0.00639 | 474000 |  |  |  | human IgG1 Fc (enhanced, S239D/I332E) (antibody)
 |  |  | 34700 | 0.71 | 20400 | human IgG1 Fc (silenced, L234F/L235E/D265A) (antibody)
424 | 0.00995 | 23500 | 2720 | 0.0675 | 24800 | human IgG1 Fc (wildtype) (antibody)
